For assay [1], the target named is T1, IGF-II (amino acids 1-67) (human, UniProt P01344 25-91).
T1 construct: mature; also called IGF-II (67aa); IGF2
Briefly: SPR (Biacore T100): IgG captured on Protein G', ligand bound, then BP injected; competitor BP2. As to the method: (§1) BIACORE® T100 and a CM5 chip coated with Protein G were utilised to set up following assay. Approximately 1000 RU of Protein G′ was immobilized on a CM5 chip using standard amine chemistry immobilization method. Entire assay consisted of three sequential injection of following four reagents 1) Candidate IgG was injected onto Protein G′ at 10 ug/ml at 5 ul/min for 180 sec.

Assay [2] deals with T1, IGF-II (amino acids 1-67). Put plainly: SPR (Biacore T100): IgG captured on Protein G', ligand bound, then BP injected; competitor BP4. As to the method:
as §1

The target in assay [3] is T1, IGF-II (amino acids 1-67). Briefly: competition SPR (Biacore T100), affinity in solution: Fab pre-incubated with ligand, free ligand read on immobilized huIR-A ECD; measurement #1; head prints 'KD nM'. As for the experimental part: (§2) Competition SPR (BIACORE®) was performed under conditions of partially mass-transport limited conditions according to previously described methodology (Nieba et al., 1996). Approximately 16,700 relative response units (RU) of huIR-A (-exon11) ectodomain was coupled by standard amine chemistry to a BIACORE® CM5 chip sensor. Uncoated flow-cell surface was used as a reference. […] Regeneration of the surface was achieved by injection of 30 ul NaCltrate/NaCl pH 4.5. […] These Req estimates were subsequently plotted against total concentrations of Fab used and the resulting inhibition curve was utilised to calculate dissociation constant (KD).

Assay [4] concerns the target T1, IGF-II (amino acids 1-67). Put plainly: SPR (Flexchip), Fab, second of duplicate; unit inferred.
Assay [5] addresses T1, IGF-II (amino acids 1-67). Put plainly: SPR (Flexchip), Fab, first of duplicate; unit inferred.
Assay [6] has as its target T1, IGF-II (amino acids 1-67). Briefly: cell-based or functional assay.
Assay [7] concerns the target T1, IGF-II (amino acids 1-67). Briefly: competition SPR (Biacore T100), affinity in solution: Fab pre-incubated with ligand, free ligand read on immobilized huIR-A ECD; measurement #2; head prints 'KD nM'. As for the experimental part:
as §2
Background: SPR reads the build-up and loss of mass on a sensor chip optically.

Assay [8] has as its target IGF-I (UniProt P05019 49-118). Briefly: cell-based or functional assay.
Assay [9] deals with T1, IGF-II (amino acids 1-67). Put plainly: cell-based or functional assay. The source holds these as a separate data set.
In assay [10] the target is T1, IGF-II (amino acids 1-67). Put plainly: SPR (Biacore), non-germlined IgG.

T1 sequence (P01344 25-91): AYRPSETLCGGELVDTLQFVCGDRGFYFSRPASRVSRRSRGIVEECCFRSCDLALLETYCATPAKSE
Sequence of IGF-I (P05019 49-118 limits assumed): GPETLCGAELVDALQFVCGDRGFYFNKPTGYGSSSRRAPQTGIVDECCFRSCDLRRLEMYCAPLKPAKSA

B1: M0070-H08 IgG (antibody, V domains shown)
VH: EVQLLESGGGLVQPGGSLRLSCAASGFTFSRYWMIWVRQAPGKGLEWVSSIRSSGETKYADSVKGRFTISRDNSKNTLYLQMNSLRAEDTAVYYCARGPLSDYYDSSGYYFDAFDIWGQGTMVTVSS
VL: DIQMTQSPSSLSASAGDRVTITCRASQSISSYLNWYQQKPGKAPNLLIYTTSNLQGGVPSRFSGSGSGTDFTLTISSLQPEDFATYYCQQGYSFPLTFGGGTKVEIK
As for B1, the “competition score (0 = does not compete significantly, 5 = competes strongly)” value in [1] stood at 3 score 0-5; in [2], 2 score 0-5.

B2: M0070-H08 Fab (Fab, V domains shown)
VH: EVQLLESGGGLVQPGGSLRLSCAASGFTFSRYWMIWVRQAPGKGLEWVSSIRSSGETKYADSVKGRFTISRDNSKNTLYLQMNSLRAEDTAVYYCARGPLSDYYDSSGYYFDAFDIWGQGTMVTVSS
VL: DIQMTQSPSSLSASAGDRVTITCRASQSISSYLNWYQQKPGKAPNLLIYTTSNLQGGVPSRFSGSGSGTDFTLTISSLQPEDFATYYCQQGYSFPLTFGGGTKVEIKR
notes: Soluble Fab from phage display; also called M0070-H08(R0032-A07)
For orientation: Kd means a measure of binding affinity in units of concentration. Consider B2, for which the Kd in assay [3] was 3.24 nM; in assay [4] it was 1.1 nM; in [5], 3.3 nM.

B3: M0072-G06 Fab (Fab, V domains shown)
VH: EVQLLESGGGLVQPGGSLRLSCAASGFTFSEYVMWWVRQAPGKGLEWVSVISPSGGYTVYADSVKGRFTISRDNSKNTLYLQMNSLRAEDTAVYYCARDRGGATTLDYWGQGTLVTVSS
VL: DIQMTQSPSTLSASVGDRVTITCRASQTISSWLAWYQQKPGKAPKLMIYKAASLGSEVPSRFSGSGSGTEFTLTISSLQPEDFSTYYCQQYKTYPVTFGQGTRLEIKR
notes: Soluble Fab from phage display; also called M0072-G06(R0032-C05)
As for B3, the Kd came to 3.99 nM in [3], 1.4 nM in [4] and 0.58 nM in assay [5]. Besides, the “IC50, IGF-II stimulated BA/F3 cell proliferation (MTS)” value (“IC50 … (MTS)” for short) in [6] came to 8.7 µg/mL.

B4: M0072-G06 IgG (antibody, V domains shown)
VH: EVQLLESGGGLVQPGGSLRLSCAASGFTFSEYVMWWVRQAPGKGLEWVSVISPSGGYTVYADSVKGRFTISRDNSKNTLYLQMNSLRAEDTAVYYCARDRGGATTLDYWGQGTLVTVSS
VL: DIQMTQSPSTLSASVGDRVTITCRASQTISSWLAWYQQKPGKAPKLMIYKAASLGSEVPSRFSGSGSGTEFTLTISSLQPEDFSTYYCQQYKTYPVTFGQGTRLEIK
As for B4, the “competition score (0 = does not compete significantly, 5 = competes strongly)” value in assay [1] was 2 score 0-5; in assay [2], 1 score 0-5.

B5: M0063-F02 Fab (Fab, V domains shown)
VH: EVQLLESGGGLVQPGGSLRLSCAASGFTFSKYEMDWVRQAPGKGLEWVSVISSSGGGTIYADSVKGRFTISRDNSKNTLYLQMNSLRAEDTAMYYCARGRTLYGGAFDIWGQGTMVTVSS
VL: DIQMTQSPSSLSASVGDRVTITCRASQPINTYLNWYQQRPGKAPRILIYTSSTLQSGVPSRFSGSGSGTDFTLTISSVQPEDFATYYCQQSYSFPLTFGGGTKVEIKR
notes: Soluble Fab from phage display; also called M0063-F02(R0032-A01)
In the case of B5, the Kd in [3] came out at 1.17 nM; in assay [4], 1.6 nM; in assay [5] it was 0.77 nM; in assay [7] it was 0.858 nM. In addition, the “IC50 … (MTS)” value in [6] is 5.56 µg/mL. For the same molecule, the “decrease in IGF-I stimulated cell proliferation, sFab at 50 µg/ml” value (shortened to “decrease”) in assay [8] is approximately 30%.

B6: M0063-F02 IgG (antibody, V domains shown)
VH: EVQLLESGGGLVQPGGSLRLSCAASGFTFSKYEMDWVRQAPGKGLEWVSVISSSGGGTIYADSVKGRFTISRDNSKNTLYLQMNSLRAEDTAMYYCARGRTLYGGAFDIWGQGTMVTVSS
VL: DIQMTQSPSSLSASVGDRVTITCRASQPINTYLNWYQQRPGKAPRILIYTSSTLQSGVPSRFSGSGSGTDFTLTISSVQPEDFATYYCQQSYSFPLTFGGGTKVEIK
notes: IgG form of the Fab; Variable domains as printed for the Fab (LV with its leading Q)
For B6, the “competition score (0 = does not compete significantly, 5 = competes strongly)” value in [1] worked out at 1 score 0-5. For the same molecule, the “competition score (0 = does not compete significantly, 5 = competes strongly)” value in assay [2] is 0 score 0-5. Besides, in [9], the “IC50, IGF-II stimulated BaF3 cell proliferation (Guava ViaCount)” value worked out at 2 nM and the “IC50, IGF-II stimulated BaF3 cell proliferation (Guava ViaCount), second study” value is approximately 7 nM.

B7: M0064-F02 Fab (Fab, V domains shown)
VH: EVQLLESGGGLVQPGGSLRLSCAASGFTFSNYIMWWVRQAPGKGLEWVSVISSSGGMTRYADSVKGRFTISRDNSKNTLYLQMNSLRAEDTAVYYCARDNGDYVGEKGFDIWGQGTMVTVSS
VL: DIQMTQSPSSLSASVGDRVTITCRASQSISNYLNWYQQKPGKAPKLLIYTASTLQSGVPSRFSGSASGTDFTLTINSLQPEDFATYSCQQSYNSPWTFGQGTKVEIKR
notes: Soluble Fab from phage display; also called M0064-F02(R0032-A11); 566A-M0064-F02
With B7, the Kd was determined as 1.03 nM in assay [3], 1.2 nM in assay [4], 0.45 nM in assay [5] and 0.503 nM in assay [7]. The “IC50 … (MTS)” value in assay [6] amounted to 0.68 µg/mL. Also, in assay [8], the “decrease” value is approximately 30%.

B8: M0064-F02 IgG (antibody, V domains shown)
VH: EVQLLESGGGLVQPGGSLRLSCAASGFTFSNYIMWWVRQAPGKGLEWVSVISSSGGMTRYADSVKGRFTISRDNSKNTLYLQMNSLRAEDTAVYYCARDNGDYVGEKGFDIWGQGTMVTVSS
VL: DIQMTQSPSSLSASVGDRVTITCRASQSISNYLNWYQQKPGKAPKLLIYTASTLQSGVPSRFSGSASGTDFTLTINSLQPEDFATYSCQQSYNSPWTFGQGTKVEIK
notes: IgG form of the Fab; also called non-germlined M0064-F02
Take B8: the “competition score (0 = does not compete significantly, 5 = competes strongly)” value in [1] and in assay [2] was 4 score 0-5 each time. In [10], this molecule showed a Kd of 0.14 nM.

B9: M0064-E04 Fab (Fab, V domains shown)
VH: EVQLLESGGGLVQPGGSLRLSCAASGFTFSVYDMNWVRQAPGKGLEWVSSISSSGGGTLYADSVKGRFTISRDNSKNTLYLQMNSLRAEDTAVYYCARDSDTSSYYWYYDLWGRGTLVTVSS
VL: DIQMTQSPSSLSASVGDRVTITCQASHDISNYLNWYQQKPGKAPKLLIYAASRLQSGVPSRFSGGGSGTDFSLTISSLQAEDFATYYCQQSYSFPRTFGQGTNLEIKR
notes: Soluble Fab from phage display; also called M0064-E04(R0032-A03); 566A-M0064-E04
In the case of B9, the Kd in assay [3] came out at 0.608 nM; in [4], 0.25 nM; in [5], 0.12 nM; in assay [7] it was 1.11 nM. In addition, the “IC50 … (MTS)” value in assay [6] was found to be 3.04 µg/mL. In [8], the “decrease” value was approximately 30%.

B10: M0072-C06 Fab (Fab, V domains shown)
VH: EVQLLESGGGLVQPGGSLRLSCAASGFTFSAYIMTWVRQAPGKGLEWVSSISPSGGYTVYADSVKGRFTISRDNSKNTLYLQMNSLRAEDTAVYYCARDSGFGDPFDYWGQGTMVTVSS
VL: DIQMTQSPSSLSASVGDRVTITCRASQSIRNYLNWYQQKPGKAPKLLIYAASKLEDGVPSRFSGSGTGTDFTLTIRSLQPEDFASYFCQQSYSSPGITFGPGTKVEIKR
notes: Soluble Fab from phage display; Often printed as M0072-006; also called M0072-006; M0072-C06(R0032-A09)
With B10, the Kd was determined as 1.64 nM in [3], 0.7 nM in assay [4], 5.2 nM in [5] and 2.52 nM in assay [7]. The “IC50 … (MTS)” value in assay [6] turned out to be 5.12 µg/mL. Moreover, the “decrease” value in [8] was approximately 30%.

B11: M0072-C06 IgG (antibody, V domains shown)
VH: EVQLLESGGGLVQPGGSLRLSCAASGFTFSAYIMTWVRQAPGKGLEWVSSISPSGGYTVYADSVKGRFTISRDNSKNTLYLQMNSLRAEDTAVYYCARDSGFGDPFDYWGQGTMVTVSS
VL: DIQMTQSPSSLSASVGDRVTITCRASQSIRNYLNWYQQKPGKAPKLLIYAASKLEDGVPSRFSGSGTGTDFTLTIRSLQPEDFASYFCQQSYSSPGITFGPGTKVEIK
In the case of B11, the results for the “competition score (0 = does not compete significantly, 5 = competes strongly)” value in assay [1] and in [2] were 3 score 0-5 and 2 score 0-5, respectively.

B12: M0072-E03 Fab (Fab, V domains shown)
VH: EVQLLESGGGLVQPGGSLRLSCAASGFTFSEYEMSWVRQAPGKGLEWVSSIYSSGGWTKYTDSVKGRFTISRDNSKNTLYLQMNSLRAEDTAVYYCAKGVHYDSSGLPIDWYFDLWGRGTLVTVSS
VL: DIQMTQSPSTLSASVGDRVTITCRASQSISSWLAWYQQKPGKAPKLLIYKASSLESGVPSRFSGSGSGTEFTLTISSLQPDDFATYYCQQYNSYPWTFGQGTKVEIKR
notes: Soluble Fab from phage display; also called M0072-E03(R0032-C03)
As for B12, the values for the Kd in [3], in [4] and in [5] were 2.62 nM, 0.3 nM and 0.75 nM, respectively. Moreover, the “decrease” value in assay [8] was approximately 30%.

B13: M0072-E03 IgG (antibody, V domains shown)
VH: EVQLLESGGGLVQPGGSLRLSCAASGFTFSEYEMSWVRQAPGKGLEWVSSIYSSGGWTKYTDSVKGRFTISRDNSKNTLYLQMNSLRAEDTAVYYCAKGVHYDSSGLPIDWYFDLWGRGTLVTVSS
VL: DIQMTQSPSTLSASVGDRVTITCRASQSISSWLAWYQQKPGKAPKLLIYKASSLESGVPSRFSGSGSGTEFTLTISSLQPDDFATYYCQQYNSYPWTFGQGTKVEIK
As to B13, the “competition score (0 = does not compete significantly, 5 = competes strongly)” value in assay [1] and in assay [2] was 4 score 0-5 each time.

Source of the values: US20110262446A1 (published 2011).
